The source of these data is US12338268B2, “Compositions and methods for treating protein aggregation-associated diseases” (The Board of Trustees of the Leland Stanford Junior …, priority 2019, dated 2025).

For data set [1], the target named is T1, Aβ40 (Homo sapiens, UniProt P05067).
T1 construct: Aβ40 peptide was expressed and purified as described previously; made in house; host or cells: E. coli BL21 (DE3)
The data set is described as follows: Chemical crosslinking (BS3) and mass spectrometry of NAC-Aβ40 complexes. The class given is binding. The conditions noted are these: NAC and Aβ40 both 18 μM, 37° C. 2 h. The procedure: Aβ40 (18 μM) was incubated with purified NAC in a 1:1 molar ratio in Aβ aggregation buffer (20 mM sodium phosphate pH 7.5, 0.2 mM EDTA, 0.01% (w/v) NaN3) at 37° C. for 2 h. BS^3-h^12d^12 was added to the proteins at 20× molar excess and incubated for 30 min at 37° C. before quenching with 50 mM NH4HCO3. Crosslinked samples were gel-filtrated using a Superdex 75 column (GE Healthcare) and fractions containing crosslinked Aβ40-NAC complexes subjected to co-immunoprecipitation using Aβ antibody 6E10 (Biozol). Captured proteins were denatured with 1×SDS sample buffer under non-reducing conditions to avoid splitting of the antibody in heavy and light chains.
Gel pieces containing the crosslinked complexes were washed with 25 mM ammonium bicarbonate (pH 7.8) for 1 h with shaking. The solution was removed and the pieces destained three times with 25 mM ammonium bicarbonate in 60% acetonitrile. Gel pieces were dehydrated with 100% acetonitrile for 10 min and left to air-dry in a laminar flowhood for 1 h. Rehydration of the gel pieces was achieved by adding 0.1 mg/ml trypsin solution and incubating the samples on ice for 30 min. Excess trypsin was removed and the samples were incubated at 37° C. and 1000 rpm overnight. […] The extracts were pooled and concentrated using a SpeedVac before being analyzed using a nanoACQUITY LC-system coupled to a Synapt HDMS G2Si mass spectrometer. […]

For data set [2], the target named is GdmCl-denatured firefly luciferase (Photinus pyralis, UniProt P08659). The data set is described as follows: Luciferase refolding assay. Particulars: denatured luciferase preincubated 1:1 for 15 min at room temperature before adding Hsp70/Hsp40. The class given is biochemical.
Sequence of GdmCl-denatured firefly luciferase (P08659 whole entry): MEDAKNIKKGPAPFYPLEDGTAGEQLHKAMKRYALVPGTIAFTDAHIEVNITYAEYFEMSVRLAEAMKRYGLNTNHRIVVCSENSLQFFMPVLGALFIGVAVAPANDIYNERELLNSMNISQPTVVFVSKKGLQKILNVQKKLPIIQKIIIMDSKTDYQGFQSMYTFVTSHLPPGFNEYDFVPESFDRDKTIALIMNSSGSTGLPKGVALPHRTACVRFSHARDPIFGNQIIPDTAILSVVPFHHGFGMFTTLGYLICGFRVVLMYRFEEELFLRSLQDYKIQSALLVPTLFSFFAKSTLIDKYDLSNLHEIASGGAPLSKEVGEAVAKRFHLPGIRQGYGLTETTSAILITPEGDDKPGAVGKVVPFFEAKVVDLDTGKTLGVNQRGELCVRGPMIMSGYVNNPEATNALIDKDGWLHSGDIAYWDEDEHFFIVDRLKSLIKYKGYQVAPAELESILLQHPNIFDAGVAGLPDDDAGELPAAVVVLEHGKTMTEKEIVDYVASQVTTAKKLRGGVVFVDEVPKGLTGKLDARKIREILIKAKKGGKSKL
For data set [3], the target named is T2, mutant Huntingtin exon 1 (mHttQ51) (Homo sapiens, UniProt P42858, INS38QQQQQQQQQQQQQQQQQQQQQQQQQQQQQQQ).
T2 construct: mutant Huntingtin exon 1 containing a pathogenic stretch of 51 glutamines (mHttQ51); GST (N, cleaved yes); made in house; host or cells: E. coli Rosetta 2(DE3) pLysS
T2 sequence (P42858 with tags, fused parts or gaps with the stated changes limits assumed): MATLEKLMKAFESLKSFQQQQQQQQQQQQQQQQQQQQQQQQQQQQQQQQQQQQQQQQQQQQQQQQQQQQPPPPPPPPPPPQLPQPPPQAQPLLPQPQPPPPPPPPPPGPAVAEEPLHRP
The data set is described as follows: In vitro filter trap aggregation assay of mutant Huntingtin exon 1. Format: biochemical. As for the experimental part:
Mutant Huntingtin and PolyQ51 aggregation reactions were performed at concentration 3 μM of mHttQ51, 0.044 Units/μl acTEV protease (Invitrogen, Carlsbad, CA, USA), and respective concentrations of Ovalbumin (Sigma) or purified NAC chaperone variants. Aggregation was conducted in TEV reaction buffer (Invitrogen) and incubated at 30° C. AtxQ78 was buffer exchanged into TEV reaction buffer using 7K MWCO Zeba Spin Desalting Columns (Thermo Fisher) to initiate aggregation. AtxQ78 aggregation reactions were performed at 30 μM of Ataxin-3 in reaction buffer (20 mM sodium phosphate pH 7.5, 25 mM NaCl, 6 mM MgCl2, 2 mM DTT, 5% (v/v) glycerol) and incubated at 37° C. Samples at varied time-points were then taken and combined in a 1:1 ratio with a 4% (w/v) SDS, 100 mM DTT solution, boiled for 5 min at 95° C., and stored at −20° C. Samples were then filtered through a 0.22 μm cellulose acetate membrane (Whatman) and washed with 0.1% (w/v) SDS. Membrane was probed using an S-tag antibody (Abcam) for mHttQ51 and PolyQ51, and with a His-tag antibody (Abcam) for AtxQ78.

In data set [4] the target is α-synuclein (Homo sapiens, UniProt P37840). Particulars: Martin et al., 2018; cited from earlier work.
The target of data set [5] is T3, FlucDM-EGFP (Photinus pyralis, UniProt P08659, R188Q/R261Q).
T3 construct: expressed in transfected cells; host or cells: C. elegans muscle cells (transgenic strain, unc-54 promoter)
T3 sequence (P08659 whole entry R188Q/R261Q): as the sequence (P08659 whole entry) above, with R188Q, R261Q counted along it
The data set is described as follows: FlucDM-EGFP aggregation after heat-shock in C. elegans. The class given is in vivo. The conditions noted are these: overexpressed in muscle cells; heat-shock 1 h, 33° C.; 24 h recovery at 20° C. The procedure: We further investigated NAC activity on luciferase refolding in vivo using a C. elegans strain expressing a structurally destabilized version of luciferase fused to EGFP (FlucDM-EGFP) in muscle cells (Gupta et al., 2011). This protein is soluble at moderate temperature but aggregates upon heat stress. After heat-shock (1 h, 33° C.) of worms, FlucDM-EGFP formed large punctate aggregates which were still evident in control animals after 24 h recovery at 20° C. (FIG. 4B, “ev”). […] Thus, efficient luciferase refolding by NAC depends on N-βNAC, in vitro and in vivo.
Worms were cultured according to standard techniques with E. coli OP50 as food source (Brenner, 1974). Transgenic strains were generated using standard microinjection protocols (Mello and Fire, 1995). Constructs for overexpression of NAC in body wall muscles were generated by cloning the coding sequences of icd-1 (βNAC) and icd-2 (αNAC) into a vector containing the myo-3 promoter and the unc-54 3′-untranslated region (UTR). The NAC genes were N-terminally tagged with 3×FLAG. Mutant NAC constructs were generated by standard mutagenesis protocols. AM140 (unc-54p::Q35::YFP) and FlucDM-EGFP (unc-54p::luciferase::GFP) worms were injected with 25 ng/μl of each NAC plasmid together with myo-2p::mCherry (2.5 ng/μl) and DNA ladder (100 ng/μl, GeneRuler 1 kb, Thermo Scientific). […]

B1: NAC: nascent polypeptide-associated complex, heterodimer of αNAC and βNAC; species not given at the place (C. elegans icd-1/icd-2 when overexpressed in worms) (protein)
chain 1: MTGSTETRQKEVKEPQVDVSDDSDNEAVEQELTEEQRRVAEAAGLGDHIDKQAKQSRSEKKARKLFSKLGLKQVTGVSRVCIRKSKNILFVINKPDVFKSPGSDTYIIFGEAKIEDLTQHAQMSAIENLKPTREAPQLKTVEEDENEDVEEDSTGIEEKDIELVISQANTTRNKAIRALKEADNDIVNAIMSLTM
chain 2: MMDSKAIAERIKKLQAQQEHVRIGGKGTPRRKKKVIHKTAAADDKKLQSNLKKLSVTNIPGIEEVNMIKDDGTVIHFNNPKVQTSVPANTFSVTGSADNKQITEMLPGILNQLGPESLTHLKKLANNVTKLGPDGKGEDEDVPELVGDFDAASKNETKADEQ
As for B1, the “interaction with Aβ40 (crosslinking-MS)” value in data set [1] is on record as “interaction of Aβ40 with the N-terminal domains of NAC”. Moreover, in data set [2], the “luciferase refolding by the Hsp70/Hsp40 system” value is recorded as “strongly enhanced over levels of just Hsp70/Hsp40 refolding”. In data set [3] (1×, 5× or 10× molar excess of human NAC), the “concentration dependence of mHttQ51 aggregation suppression” value is “concentration dependent”. Also, in data set [3] (6-hour time delay between initiation of aggregation and addition, 5× molar excess), the “disaggregation of preformed mHttQ51 aggregates” value is recorded as “did not disaggregate preformed mHttQ51 aggregates”. Also, the “aggregation of α-synuclein” value in data set [4] is on record as “suppresses aggregation”. In addition, the “FlucDM-EGFP aggregates after heat-shock and recovery” value in data set [5] was “fully revert back to diffuse GFP signal”.
